B1: OsHKT1;5 (SKC1) promoter W-box probe, 48 bp (SKC1-biotin-F1) (dsDNA)
DNA 1: ATAAGATGTTTTTGACTTTGGTCAAAGTCAAACTGTTTATGTTTGACC
DNA 2: GGTCAAACATAAACAGTTTGACTTTGACCAAAGTCAAAAACATCTTAT
B2: OsMKK10.2 promoter W-box probe, 48 bp (MKK10.2-biotin-F1) (dsDNA)
DNA 1: CGGTTTGGGAACCGACTTAGGGCGGTCAAGGCGCGAGCTGGCGCTCCG
DNA 2: CGGAGCGCCAGCTCGCGCCTTGACCGCCCTAAGTCGGTTCCCAAACCG

Biological target: MBP-OsWRKY53 (Oryza sativa (rice), UniProt A7BEY7 1-487)
Test: EMSA; 60 fmol probe, 2 ug protein; EMSA: 20 uL, 25 C 30 min, LightShift kit buffer (composition not given), 6% native PAGE, 0.5x TBE pH 8.3, 4 C; SPR: CM5 chip with anti-biotin antibody capturing biotin-oligo, 10 uL/min, reaction buffer composition and temperature not given
Settings: protein: recombinant; tags: MBP (N-terminal, pMal-c2x); label: biotin

Chain of MBP-OsWRKY53 (A7BEY7 entry or part of it): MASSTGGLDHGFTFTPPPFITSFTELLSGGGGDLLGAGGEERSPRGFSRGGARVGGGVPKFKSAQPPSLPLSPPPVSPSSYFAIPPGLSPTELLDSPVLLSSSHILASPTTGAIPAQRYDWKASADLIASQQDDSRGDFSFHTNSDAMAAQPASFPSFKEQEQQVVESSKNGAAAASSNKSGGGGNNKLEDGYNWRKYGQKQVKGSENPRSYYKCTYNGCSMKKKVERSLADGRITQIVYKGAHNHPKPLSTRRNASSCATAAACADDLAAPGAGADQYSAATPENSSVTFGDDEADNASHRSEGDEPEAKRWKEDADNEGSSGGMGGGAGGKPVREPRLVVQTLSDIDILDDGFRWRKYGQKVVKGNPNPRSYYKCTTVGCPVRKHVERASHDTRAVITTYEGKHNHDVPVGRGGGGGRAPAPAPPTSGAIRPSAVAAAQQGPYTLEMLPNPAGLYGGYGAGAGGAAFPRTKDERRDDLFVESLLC

Binder	binding result
B1	binds
B2	binds

Source: paper PMC10272163, “Genome-wide association studies identify OsWRKY53 as a key regulator of salt tolerance in rice”
